In the supplement of paper PMC10201428:
± gives the standard deviation of the averaged measurements.

B1: library; a variant is named by its letters at N, in order (parent)
chain: AATGTTGTTGATGCAACCATAAAGTGATATTTAATAATTATTTATAATCAGCAACTTAACCACAAAACAACCATATATTGATATNTCACAAAACAACCATAANTTGATATTTTTGTGAATCGAGTATTTCAGCAAAACTACTGCAGTAAGAA

Key:
[1] = variants of: B1; assay: relative integration efficiency (T-LR orientation) vs wild-type transposon end (log2 (normalized fold change)); transposon end mutated: left end; higher = more efficient transposition; settings: with VchCAST RNA-guided transposition machinery (E. coli BL21(DE3) host, lacZ target)
Procedure, shortened: (§1)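 Barcode abundances in input plasmids and in genomic integration junctions were obtained by PCR amplification and Illumina sequencing. These came from E. coli BL21(DE3) co-transformed with a T7-driven effector plasmid and a pUC57 donor carrying 1549 left-end or 1849 right-end transposon variants, then plated with 0.1 mM IPTG at 37°C for 18 h. Relative integration efficiency is the output/input fold change, normalised to reference barcodes and log-transformed.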

[2] = variants of: B1; assay: relative integration efficiency (T-RL orientation) vs wild-type transposon end (log2 (normalized fold change)); transposon end mutated: left end; higher = more efficient transposition; settings: with VchCAST RNA-guided transposition machinery (E. coli BL21(DE3) host, lacZ target)
Procedure, shortened: as §1

Row | Variant | relative integration efficiency (log2) [1] | relative integration efficiency (log2) [2]
1 | CG A2T T3A | 0.399 ± 0.43 | 0.191 ± 0.092
2 | CG G80T | 0.0932 ± 0.91 | -0.44 ± 0.42
3 | CG G80A | -0.967 ± 1.4 | -0.773 ± 0.37
4 | GG A83T T84A T86A | -0.405 ± 0.36 | -0.604 ± 0.36
5 | CA A16C G24T T30A T104A T110A T113A | -0.532 ± 0.028 | -0.543 ± 0.56
6 | CG T9G G10T | -0.0361 ± 0.31 | 0.0751 ± 0.11
7 | TA A23G G24T A33T A70C T76A T84A C87A T104G T113A | -0.16 ± 0.29 | -0.158 ± 0.26
8 | CG C14G | -0.527 ± 0.35 | -0.0895 ± 0.33
9 | CG C14T | 0.167 ± 0.37 | -0.295 ± 0.18
10 | CG A59C C60A C61A A62C | 0.009 ± 0.11 | 0.0247 ± 0.0075
11 | CG A19T T20A A21T A22T | -1.03 ± 0.48 | -1.21 ± 0.46
12 | CG T45A A46T | -0.208 ± 0.19 | 0.192 ± 0.024
13 | CG A29C A83C A109C | -1.94 ± 0.43 | -1.65 ± 0.57
14 | CG A46T A47T | 0.446 ± 0.37 | 0.452 ± 0.058
15 | CA A16C G24T T32G A33C A96C T112G T113C | -1.27 ± 0.78 | -0.695 ± 0.12
16 | CG G122T A123C G124T T125G | 0.252 ± 0.21 | 0.127 ± 0.054
17 | CG A40T T41A | -0.491 ± 0.97 | -0.0047 ± 0.075
18 | CG A109C | 0.0163 ± 0.22 | -0.193 ± 0.42
19 | CG T56G | -0.0431 ± 0.26 | -0.112 ± 0.12
20 | CG A91C A92C A93C C94A | -0.269 ± 0.36 | -0.581 ± 0.55

Row | Variant | relative integration efficiency (log2) [1] | relative integration efficiency (log2) [2]
21 | CG A92T A93T C94G A95T | -3.64 ± 1.2 | -1.61 ± 0.83
22 | CG T12G G13T C14A A15C | -0.59 ± 0.54 | -0.224 ± 0.3
23 | TA A23G G24T A33T A70C T76A T86G A96C T110A T113A | 0.0515 ± 0.56 | 0.0613 ± 0.44
24 | CG A50T G51C | -1.59 ± 0.97 | -0.729 ± 0.46
25 | CG T32C | 0.089 ± 0.39 | -0.0923 ± 0.12
26 | CG A66C A67C | -0.404 ± 0.29 | -0.0641 ± 0.033
27 | TG A70C T76A T86G | 0.145 ± 0.46 | -0.133 ± 0.18
28 | TG A22T G24T T31C A33C T76A T78G C87A | 1.14 ± 0.4 | 0.463 ± 0.49
29 | CG C71T | -0.49 ± 0.49 | -0.408 ± 0.23
30 | CG A34T T35A A36T A37T | 0.329 ± 0.44 | 0.189 ± 0.094
31 | CG T45C T48C G51T C52A C55G T57G A59T C60A C61T A62T C63T A66C A67T | -0.402 ± 1 | -5.71 ± 1.3
32 | CG C18G A19T | -1.25 ± 0.29 | -1.13 ± 0.5
33 | CG A19G | -0.219 ± 0.077 | -0.352 ± 0.074
34 | TA A23G G24T A33T A70C T76A T86G A102T T111C T113C | -0.846 ± 0.11 | -0.375 ± 0.19
35 | CG T45A | 0.403 ± 0.63 | -0.0115 ± 0.062
36 | TA A70C T76A T86G A96C T110A T113A | -0.0134 ± 0.035 | -0.255 ± 0.15
37 | CA A22T G24T T31C A33C A96C T112G T113C | -0.822 ± 0.81 | -0.76 ± 0.32
38 | TA A16C G24T T32G A33C T76A T78G C87A A102T T111C T113C | -0.986 ± 0.79 | -0.362 ± 0.18
39 | TA A22T G24T T31C A33C A70C T76A T86G A96C T110A T113A | 0.00776 ± 0.18 | -0.657 ± 0.25
40 | CG C52A A53C | 0.0739 ± 0.63 | -0.177 ± 0.1

Row | Variant | relative integration efficiency (log2) [1] | relative integration efficiency (log2) [2]
41 | CG T3G G4T T5G T6G | < -10 | -7.767 ± 0.04
42 | CG T32G T86G T112G | -0.809 ± 0.9 | -0.686 ± 0.19
43 | TA A22T G24T T31C A33C A70C T76A T86G T104A T110A T113A | -0.292 ± 0.24 | -0.768 ± 0.47
44 | CG C17G C18G | -0.437 ± 0.49 | -0.313 ± 0.33
45 | CG T112C | -0.138 ± 0.38 | -0.258 ± 0.13
46 | CG T57C | -0.422 ± 0.61 | -0.546 ± 0.31
47 | CG G26T | -0.577 ± 1.1 | -0.329 ± 0.41
48 | CG G26A | -0.184 ± 0.65 | -0.427 ± 0.47
49 | CG A1C A2C T3G G4T T5G | -0.299 ± 0.17 | -0.197 ± 0.14
50 | CG C72A A73C T74G A75C | -2.39 ± 1.6 | -2.27 ± 0.64
51 | TA A23G G24T A33T A70C T76A T84A C87A T104A T110A T113A | -0.119 ± 0.32 | -0.0493 ± 0.28
52 | TA T76A A77G C87T A96C T110A T113A | -0.108 ± 0.52 | -0.522 ± 0.3
53 | CG T113G T114G G115T T116G G117T A118C A119C T120G C121A G122T A123C G124T T125G | -0.192 ± 0.1 | -0.0695 ± 0.04
54 | CG T8A T9A G10C A11T | < -10 | -6.573 ± 0.021
55 | CG T35A | 0.179 ± 0.22 | 0.0694 ± 0.048
56 | CG T35G | 0.136 ± 0.33 | 0.163 ± 0.11
57 | TA A16C G24T T30A T76A A77G C87T T104A T110A T113A | -0.222 ± 0.22 | -0.901 ± 0.53
58 | CG T38G T39G A40C T41G | 0.212 ± 0.16 | -0.193 ± 0.16
